Target: T1, C3-HIS integrase (E. coli minicircle) (Bacteriophage lambda, UniProt P03700 SEQ:1-356)
T1 chain: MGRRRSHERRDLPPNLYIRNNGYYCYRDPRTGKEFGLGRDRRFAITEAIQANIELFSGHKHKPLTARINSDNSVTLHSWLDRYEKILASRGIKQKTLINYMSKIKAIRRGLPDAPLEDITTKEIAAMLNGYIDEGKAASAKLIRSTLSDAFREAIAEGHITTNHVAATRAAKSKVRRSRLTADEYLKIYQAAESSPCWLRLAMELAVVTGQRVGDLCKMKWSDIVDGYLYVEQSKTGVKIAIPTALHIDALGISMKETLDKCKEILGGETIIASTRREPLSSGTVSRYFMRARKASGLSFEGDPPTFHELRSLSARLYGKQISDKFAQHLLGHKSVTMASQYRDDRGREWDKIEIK
Assay: cell_activity; E. coli TG1 chromosomal attB integration; 27 colonies, ~90% correct
Conditions: tags: His tag
Excerpt: The present example follows the methodology depicted in FIG. 2. C3INT-HIS-PET22b(+) was amplified with petF2 (SEQ ID NO: 10) and petR (SEQ ID NO: 11) and the PCR product subsequently intramolecularly ligated to produce a C3INT-HIS minicircle. attP-PET22b(+) was amplified with attP-F (SEQ ID NO: 12) and attPSOE-R (SEQ ID NO: 13) while PET22b(+) was amplified with TEM1prom-F (SEQ ID NO: 14) and TEM1promR (SEQ ID NO: 15) which produced PCR products encoding attP and ampicillin-resistant gene respectively. Splice overlap extension PCR (SOE-PCR) was carried out with these two PCR products using attP-F (SEQ ID NO: 12) and TEM1prom-R (SEQ ID NO: 15). The PCR product was subsequently intramolecularly ligated to produce attP-TEM1 minicircle. 100 ng of C3INT-HIS minicircle and 100 ng attP-TEM1 minicircle were combined and electroporated to 25 μL electrocompetent TG1 cells. The cells were allowed to recover for 1 hr before being plated on varying concentrations of ampicillin-LB agar plates (0.01 mg/mL, 0.02 mg/mL, 0.05 mg/mL, 0.07 mg/mL and 0.1 mg/mL). Incubation was carried out at 37° C. for 12-14 hrs to allow for expression of C3 integrase and chromosomal integration of the ampicillin-resistance cassette by C3 integrase. […]

B1: attB ; attP (dsDNA ; dsDNA)
DNA 1: CTGCTTTTTTATACTAACTTG
DNA 2: CAAGTTAGTATAAAAAAGCAG
DNA 3: CAGCTTTTTTATACTAAGTTG
DNA 4: CAACTTAGTATAAAAAAGCTG
  binding signal: ~12 fold vs Int-h/218
